Results published in publication PMC6629707, “The Kindlin2-p53-SerpinB2 signaling axis is required for cellular senescence in breast cancer” (Cell Death & Disease, 2019).

Target: T1, purified p53 protein (Abcam) (UniProt P04637 1-393)
T1 construct: p53 protein bought from Abcam; also called immobilized p53; source: bought: Abcam
Test: ELISA; solid phase direct binding assay; p53 immobilised on 96-well plates at 5 μg/well, 20 h, 4 °C; 3% BSA; GST-tagged Kindlin-2 variants or GST 0–7 µM in TBS with 1 mM CaCl2, 1 mM MgCl2, 2 h at 37 °C; detected with anti-GST-HRP; GST signal subtracted; one-site binding fit
Settings: both partners purified

T1 sequence (P04637 whole entry): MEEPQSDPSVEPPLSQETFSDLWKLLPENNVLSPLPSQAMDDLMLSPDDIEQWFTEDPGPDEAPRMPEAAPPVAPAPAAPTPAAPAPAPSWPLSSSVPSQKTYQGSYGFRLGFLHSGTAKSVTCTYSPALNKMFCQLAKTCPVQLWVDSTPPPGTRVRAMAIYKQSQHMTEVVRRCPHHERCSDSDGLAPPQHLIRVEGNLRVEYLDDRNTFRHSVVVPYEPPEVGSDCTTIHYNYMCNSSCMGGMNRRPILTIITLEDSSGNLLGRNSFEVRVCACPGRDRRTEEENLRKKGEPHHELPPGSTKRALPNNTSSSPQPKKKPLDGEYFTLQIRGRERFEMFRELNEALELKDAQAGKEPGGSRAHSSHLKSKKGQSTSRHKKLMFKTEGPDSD

B1: GST-tagged full-length wild-type Kindlin-2 (natural protein, UniProt Q96AC1 1-680, looked up)
chain: MALDGIRMPDGCYADGTWELSVHVTDLNRDVTLRVTGEVHIGGVMLKLVEKLDVKKDWSDHALWWEKKRTWLLKTHWTLDKYGIQADAKLQFTPQHKLLRLQLPNMKYVKVKVNFSDRVFKAVSDICKTFNIRHPEELSLLKKPRDPTKKKKKKLDDQSEDEALELEGPLITPGSGSIYSSPGLYSKTMTPTYDAHDGSPLSPTSAWFGDSALSEGNPGILAVSQPITSPEILAKMFKPQALLDKAKINQGWLDSSRSLMEQDVKENEALLLRFKYYSFFDLNPKYDAIRINQLYEQAKWAILLEEIECTEEEMMMFAALQYHINKLSIMTSENHLNNSDKEVDEVDAALSDLEITLEGGKTSTILGDITSIPELADYIKVFKPKKLTLKGYKQYWCTFKDTSISCYKSKEESSGTPAHQMNLRGCEVTPDVNISGQKFNIKLLIPVAEGMNEIWLRCDNEKQYAHWMAACRLASKGKTMADSSYNLEVQNILSFLKMQHLNPDPQLIPEQITTDITPECLVSPRYLKKYKNKQITARILEAHQNVAQMSLIEAKMRFIQAWQSLPEFGITHFIARFQGGKKEELIGIAYNRLIRMDASTGDAIKTWRFSNMKQWNVNWEIKMVTVEFADEVRLSFICTEVDCKVVHEFIGGYIFLSTRAKDQNESLDEEMFYKLTSGWV
notes: Kindlin-2, full length, wild type; expressed as a GST fusion protein; also called Kindlin-2-GST; GST-tagged WT Kindlin-2; source: Escherichia coli, purified on Glutathione-Sepharose
An EC50 of 480 nM was found for B1 in this work.
